Laboratory results as given in the Immune Epitope Database (IEDB).
Blank lines part the entries; values can stand above or below the sequence they belong to.

Tests used:
HLA-B*08:02 = test: IEDB peptide-MHC binding, purified MHC/direct/fluorescence; filed as Kd, often an IC50 or EC50 that approximates it; ≥ and ≤ were set here for values at or beyond the usual limits of such assays
HLA-B*08:01 = test: as above
HLA-B*18:01 [1] = test: as above
HLA-A*69:01 = test: as above
HLA-B*57:01 = test: as above
HLA-A*01:01 = test: as above
HLA-B*46:01 [2] = test: as above
HLA-A*03:01 [3] = test: as above
HLA-B*40:01 [4] = test: as above
HLA-A*11:01 = test: as above
HLA-B*27:05 = test: as above
HLA-A*31:01 = test: as above
HLA-B*58:01 = test: as above
HLA-B*44:02 [5] = test: as above
HLA-B*18:01 [6] = test: IEDB peptide-MHC binding, purified MHC/competitive/radioactivity; filed as Kd, often an IC50 or EC50 that approximates it; ≥ and ≤ were set here for values at or beyond the usual limits of such assays; conditions: source organism: SARS coronavirus Tor2
HLA-B*44:03 = test: as above; conditions: source organism: SARS coronavirus Tor2
HLA-B*40:01 [7] = test: as above; conditions: source organism: SARS coronavirus Tor2
HLA-B*45:01 = test: as above; conditions: source organism: SARS coronavirus Tor2
HLA-B*44:02 [8] = test: as above; conditions: source organism: SARS coronavirus Tor2
HLA-B*40:02 = test: as above; conditions: source organism: SARS coronavirus Tor2
HLA-A*03:01 [9] = test: IEDB peptide-MHC binding, purified MHC/competitive/fluorescence; filed as Kd, often an IC50 or EC50 that approximates it; ≥ and ≤ were set here for values at or beyond the usual limits of such assays
HLA-A*24:02 = test: IEDB peptide-MHC binding, purified MHC/competitive/fluorescence; ≥ and ≤ were set here for values at or beyond the usual limits of such assays
HLA-B*48:01 = test: IEDB peptide-MHC binding, purified MHC/direct/fluorescence; filed as Kd, often an IC50 or EC50 that approximates it; ≥ and ≤ were set here for values at or beyond the usual limits of such assays
HLA-B*07:02 = test: as above
HLA-A*26:01 = test: as above; conditions: source organism: Escherichia coli O157:H7
HLA-B*15:01 = test: as above; conditions: source organism: Escherichia coli
HLA-A*24:03 = test: as above; conditions: source organism: Escherichia coli
HLA-A*02:01 [10] = test: as above; conditions: source organism: Escherichia coli
HLA-A*02:01 [11] = test: IEDB peptide-MHC binding, purified MHC/competitive/fluorescence; ≥ and ≤ were set here for values at or beyond the usual limits of such assays
HLA-B*46:01 [12] = test: IEDB peptide-MHC binding, purified MHC/competitive/fluorescence; filed as Kd, often an IC50 or EC50 that approximates it; ≥ and ≤ were set here for values at or beyond the usual limits of such assays; conditions: source organism: Yellow fever virus
[13] = source organism: Yersinia pestis CA88-4125
[14] = source organism: Yersinia pestis
[15] = source organism: Vaccinia virus WR
[16] = source organism: Escherichia coli O157:H7
[17] = source organism: Zaire ebolavirus
[18] = source organism: Mammarenavirus lassaense
[19] = source organism: Sudan ebolavirus

Sequence: QLKSRAAVL
Kd (HLA-B*08:02; [13]): 0.948 µM | Kd (HLA-B*08:01; [13]): 0.034 µM | Kd (HLA-B*18:01 [1]; [14]): ≥ 20 µM | Kd (HLA-A*69:01; [14]): ≥ 20 µM | Kd (HLA-B*57:01; [14]): ≥ 20 µM | Kd (HLA-A*01:01; [14]): ≥ 20 µM | Kd (HLA-B*46:01 [2]; [14]): ≥ 20 µM | Kd (HLA-A*03:01 [3]; [14]): ≥ 20 µM | Kd (HLA-B*40:01 [4]; [14]): ≥ 20 µM | Kd (HLA-A*11:01; [14]): ≥ 20 µM | Kd (HLA-B*27:05; [14]): ≥ 20 µM | Kd (HLA-A*31:01; [14]): ≥ 20 µM | Kd (HLA-B*58:01; [14]): ≥ 20 µM | Kd (HLA-B*44:02 [5]; [14]): ≥ 20 µM

Sequence: VENPDILRV
Kd (HLA-B*18:01 [6]): 9.07 µM | Kd (HLA-B*44:03): 0.25 µM | Kd (HLA-B*40:01 [7]): ≥ 21.8 µM | Kd (HLA-B*45:01): 0.474 µM | Kd (HLA-B*44:02 [8]): 5.14 µM | Kd (HLA-B*40:02): 1.27 µM

Sequence: VEFHLDGEVL
Kd (HLA-B*18:01 [6]): 3.23 µM | Kd (HLA-B*44:03): 0.935 µM | Kd (HLA-B*40:01 [7]): 0.000877 µM | Kd (HLA-B*45:01): 6.95 µM | Kd (HLA-B*44:02 [8]): 3.76 µM | Kd (HLA-B*40:02): 0.14 µM

Sequence: PEYFNSVCRL
Kd (HLA-B*18:01 [6]): ≥ 70.5 µM | Kd (HLA-B*44:03): 9.39 µM | Kd (HLA-B*40:01 [7]): 2.83 µM | Kd (HLA-B*45:01): ≥ 33.3 µM | Kd (HLA-B*44:02 [8]): ≥ 32.4 µM | Kd (HLA-B*40:02): 1.25 µM

Sequence: RMKWMMAMR
Kd (HLA-A*03:01 [9]; source organism: Influenza A virus (A/chicken/Fujian/25/00(H9N2))): 0.044 µM

Sequence: KRSVMLIGI
IC50 (HLA-A*24:02; [15]): 9.38 µM

Sequence: FQWAIQDGI
Kd (HLA-B*48:01; source organism: Cryptosporidium parvum Iowa II): 0.082 µM

Sequence: RWLGGILPW
IC50 (HLA-A*24:02; [15]): 0.0111 µM

Kd (HLA-B*08:01; [16]): ≥ 20 µM | Kd (HLA-B*07:02; source organism: Escherichia coli): 8.28 µM | Kd (HLA-A*69:01; [16]): ≥ 20 µM | Kd (HLA-A*26:01): ≥ 20 µM | Kd (HLA-A*01:01; [16]): ≥ 20 µM | Kd (HLA-B*15:01): 0.919 µM | Kd (HLA-A*24:03): ≥ 20 µM | Kd (HLA-A*02:01 [10]): 2.05 µM | Kd (HLA-A*03:01 [3]; [16]): ≥ 20 µM | Kd (HLA-B*40:01 [4]; [16]): ≥ 20 µM | Kd (HLA-A*11:01; [16]): ≥ 20 µM | Kd (HLA-B*27:05; [16]): ≥ 20 µM | Kd (HLA-A*31:01; [16]): ≥ 20 µM | Kd (HLA-B*58:01; [16]): ≥ 20 µM | Kd (HLA-B*44:02 [5]; [16]): ≥ 20 µM
Sequence: GLKRGGVLL

Sequence: RIHGLGFCY
Kd (HLA-A*03:01 [9]; source organism: Shigella boydii CDC 3083-94): 0.608 µM

Sequence: KKKLRPRWL
Kd (HLA-B*08:02; source organism: dengue virus type 4): ≥ 20 µM

Sequence: EILNTIQFM
IC50 (HLA-A*02:01 [11]; [15]): 7.58 µM | IC50 (HLA-A*24:02; [15]): ≥ 111 µM

Sequence: SNSVAQARF
IC50 (HLA-A*24:02; [17]): ≥ 83.6 µM

Sequence: HQDNLDTVI
Kd (HLA-B*48:01; source organism: Mycobacterium tuberculosis C): 9.15 µM

Sequence: AVKYLEGHG
IC50 (HLA-A*24:02; [17]): ≥ 117 µM

Sequence: RTKSISSR
Kd (HLA-A*03:01 [9]; source organism: Influenza A virus (A/swine/Quebec/192/81(H1N1))): ≥ 20 µM

Sequence: ILNHKFCNL
Kd (HLA-B*08:01; [18]): 0.142 µM | Kd (HLA-B*07:02; [18]): ≥ 20 µM | Kd (HLA-B*18:01 [1]; [18]): ≥ 20 µM | Kd (HLA-B*57:01; [18]): ≥ 20 µM | Kd (HLA-A*01:01; [18]): ≥ 20 µM | Kd (HLA-B*48:01; [18]): ≥ 20 µM | Kd (HLA-B*46:01 [2]; [18]): ≥ 20 µM | Kd (HLA-A*03:01 [3]; [18]): ≥ 20 µM | Kd (HLA-B*40:01 [4]; [18]): ≥ 20 µM | Kd (HLA-B*27:05; [18]): ≥ 20 µM | Kd (HLA-B*58:01; [18]): ≥ 20 µM | Kd (HLA-B*44:02 [5]; [18]): ≥ 20 µM

Sequence: IASMRRNYF
Kd (HLA-B*08:02; source organism: Influenza A virus (A/Taiwan/2/2006(H1N1))): 2.23 µM | Kd (HLA-B*08:01; source organism: Influenza A virus (A/camel/Mongolia/1982(H1N1))): 0.401 µM

Sequence: RVSSFIRGKK
Kd (HLA-A*03:01 [9]; source organism: Influenza A virus (A/swine/Italy/2/1979(H1N1))): 0.0025 µM

Sequence: LMHNQNALV
IC50 (HLA-A*02:01 [11]; [19]): 1.16 µM | IC50 (HLA-A*24:02; [19]): ≥ 87 µM

Sequence: KYVDYMSSL
IC50 (HLA-A*24:02; source organism: West Nile virus): 0.507 µM

Sequence: ADIGEWAFW
IC50 (HLA-A*24:02; [19]): 19.4 µM

Sequence: WFYDNDNPY
Kd (HLA-B*46:01 [12]): 1.17 µM
